Experiments:
[1] = target: T1, human CD73 on the cell surface (tumor cells endogenously expressing human CD73; CHOS-human CD73) (human, UniProt P21589 27-549); experiment: full-field cell scanning analyzer (Celigo), percent fluorescent cells, SK-ME-S cells endogenously expressing human CD73
T1 construct: The endogenous CD73 of the human tumor lines (MDA-MB-231, Calu6, SK-ME-S, H2030, SKLU1, BT549, A375, HCC44) is treated as the same protein
T1 sequence: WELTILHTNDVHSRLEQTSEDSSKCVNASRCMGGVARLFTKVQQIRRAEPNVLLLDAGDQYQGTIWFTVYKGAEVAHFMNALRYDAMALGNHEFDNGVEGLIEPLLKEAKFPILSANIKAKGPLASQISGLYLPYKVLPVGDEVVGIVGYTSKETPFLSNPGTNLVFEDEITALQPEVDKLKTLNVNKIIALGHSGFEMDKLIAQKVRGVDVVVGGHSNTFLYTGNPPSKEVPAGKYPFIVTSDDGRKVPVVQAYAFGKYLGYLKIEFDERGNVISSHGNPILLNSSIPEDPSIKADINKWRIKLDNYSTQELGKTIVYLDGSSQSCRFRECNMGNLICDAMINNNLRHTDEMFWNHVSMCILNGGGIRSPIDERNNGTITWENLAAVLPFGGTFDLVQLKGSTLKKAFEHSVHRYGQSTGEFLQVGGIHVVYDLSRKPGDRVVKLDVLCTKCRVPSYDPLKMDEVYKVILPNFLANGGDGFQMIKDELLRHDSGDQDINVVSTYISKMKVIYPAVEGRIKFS
Protocol: (§1) Experimental method: 10,000 cells were plated on a flat-bottom 96-well plate with 100 μL DMEM+10% FBS/well, cultured overnight so that the cells adhered to the well, and the supernatant was discarded on the next day. Serial 3-fold dilutions of antibody for 8 points were performed by diluting ⅓ of the total volume (100 μL) in 200 μL DMEM. 100 μL of the diluted antibody was added to each well of the cell plate (the supernatants of fused clones or subclones were used for screening), 100 μL of DMEM was added to the corresponding negative control well, and incubation was performed at room temperature for 1 hour. After the supernatant was discarded, 100 μL of secondary antibody (DyLight488 goat anti-mouse IgG (Abcam, Cat. No. ab97015)) was added to each well at a concentration of 5 μg/mL (diluted in DMEM), and incubation was performed for 0.5 hours at room temperature. After staining, the supernatant was discarded, followed by washing once with PBS+2% FBS, then 100 μL of PBS+2% FBS was added to each well, and then reading was performed on analyzer. A full-field cell scanning analyzer (Nexcelom Company, model Celigo® Image Cytometer) was used to measure the reading of the experimental plate. […] The binding effect of the anti-CD73 antibody to the CD73-expressing cell line was determined according to the percentage. […]

[2] = target: T2, CD73 on cynomolgus macaques CD3+CD8+ T cells (cynomolgus macaques, UniProt A0A2K5V5U7 27-549); experiment: flow cytometry on cynomolgus macaque PBMC, CD3+CD8+ T cells, donor 1132F
T2 construct: whole, on cells; also called cynomolgus macaques T cells; cynomolgus macaques PBMC
T2 sequence: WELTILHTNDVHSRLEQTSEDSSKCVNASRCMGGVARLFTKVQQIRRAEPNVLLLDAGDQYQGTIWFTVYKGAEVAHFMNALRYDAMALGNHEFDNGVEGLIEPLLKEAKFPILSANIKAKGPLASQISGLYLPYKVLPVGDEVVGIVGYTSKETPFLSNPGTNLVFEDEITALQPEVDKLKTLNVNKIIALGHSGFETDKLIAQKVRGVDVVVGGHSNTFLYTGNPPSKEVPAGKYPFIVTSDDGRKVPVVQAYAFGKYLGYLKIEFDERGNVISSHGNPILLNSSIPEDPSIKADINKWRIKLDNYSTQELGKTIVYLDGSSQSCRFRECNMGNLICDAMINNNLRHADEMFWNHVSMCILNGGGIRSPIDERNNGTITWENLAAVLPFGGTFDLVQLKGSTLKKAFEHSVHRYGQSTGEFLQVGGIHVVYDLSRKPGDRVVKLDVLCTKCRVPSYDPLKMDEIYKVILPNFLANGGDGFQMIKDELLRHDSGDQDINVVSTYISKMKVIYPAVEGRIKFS
Protocol: Monkey blood samples from two donors (1132F and 1300M) were obtained from Medicilon. Peripheral blood mononuclear cells (PBMCs) were isolated using a Ficoll density gradient centrifugation system. The PBMCs were incubated with the antibody to be tested, then the antibodies bound on the cells were stained with fluorochrome-labeled secondary antibodies (DyLight488 goat anti-mouse IgG, Abcam Cat. No. ab97015; DyLight488 goat anti-human IgG, Abcam Cat. No. ab97003), and the fluorochrome-labeled antibodies against CD3+ and CD8+ were used to recognize T cells. Together with the unstained control samples and the fluorescence compensation control samples, all the samples were run on a flow cytometer to detect the binding of the antibodies to cynomolgus macaques T cells.

[3] = target: T1, human CD73 on the cell surface (tumor …); experiment: full-field cell scanning analyzer (Celigo), percent fluorescent cells, Calu6 cells endogenously expressing human CD73
Protocol: as §1

[4] = target: T1, human CD73 on the cell surface (tumor …); experiment: full-field cell scanning analyzer (Celigo), percent fluorescent cells, CHOS cells recombinantly expressing human CD73
Protocol: as §1

[5] = target: T1, human CD73 on the cell surface (tumor …); experiment: full-field cell scanning analyzer (Celigo), percent fluorescent cells, SKLU1 cells endogenously expressing human CD73
Protocol: as §1

[6] = target: T1, human CD73 on the cell surface (tumor …); experiment: cell binding on adherent CHOS-human CD73 cells, DyLight488 goat anti-mouse IgG, full-field cell scanning analyzer (Celigo), % fluorescent cells
Protocol: as §1

B1: murine antibody 13D12 (antibody, V domains shown)
VH: DVKLQESGPAMVKPSQSLSLTCTVTGYSITSGYDWHWIRLFPGNKLEWMGYISYSGYTDYSPSLKSRISITHDTSKNHFFLKLHSVTTEDTATYYCTRGDHSYAMDYWGQGTSVTVS
VL: DIVMTQSHKFMSTSVGDRVSITCKASQAVGTAVAWYQQKPGQSPKLLIYWASSRHTGVPDRFTGSRSGTDFTLTISSVQSEDLADYFCQQYSSYPLTFGGGTNLEIK
notes: Mouse monoclonal antibody purified from hybridoma supernatant; also called mouse monoclonal antibody 13D12
EC50 [1]: 1.72 µg/mL | MFI FC (fold change of mean fluorescence intensity) [2]: 5 fold | EC50 [3]: 0.47 µg/mL | EC50 [4]: 0.44 µg/mL | EC50 [5]: 2.46 µg/mL | EC50 (read off the curve) [6]: ~0.06 µg/mL

From patent US20230312739A1 (BIOTHEUS, published 2023)
